This note sets out measurements from article PMC10033410 (Nature, 2023).

This test has as its target T1, human APOBEC3G (human, UniProt Q9HC16 1-384).
T1 construct: also called A3G; hA3G; not shown: Strep-tag, C-terminal, kept
Nature of the test: cryo-EM structure; single-particle cryo-EM of the co-expressed, co-purified complex (SEC peak fraction, 1.9 μM; 30 mM HEPES, 150 mM NaCl, 5% glycerol, 1 mM TCEP); co-purified insect-cell ssRNA between A3G and Vif; monomer map 2.7 Å, dimer states 1, 1' and 2. Particulars: both partners purified.

T1 sequence (Q9HC16 whole entry): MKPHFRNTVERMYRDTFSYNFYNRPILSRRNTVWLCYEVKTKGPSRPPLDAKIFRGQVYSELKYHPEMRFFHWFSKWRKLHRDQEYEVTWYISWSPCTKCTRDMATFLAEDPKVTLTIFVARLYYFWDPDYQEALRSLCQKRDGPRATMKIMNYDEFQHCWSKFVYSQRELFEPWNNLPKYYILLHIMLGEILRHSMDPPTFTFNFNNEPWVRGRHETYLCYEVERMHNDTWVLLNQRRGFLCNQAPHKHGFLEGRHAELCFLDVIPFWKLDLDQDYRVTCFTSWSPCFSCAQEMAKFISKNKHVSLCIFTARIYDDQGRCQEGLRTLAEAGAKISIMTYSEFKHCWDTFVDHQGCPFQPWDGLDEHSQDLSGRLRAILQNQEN

B1: HIV-1 HXB2 Vif (natural protein)
chain: not shown
notes: also called Vif_(HXB2)
As for B1, the binding result is “binds”.
